Reference: US9623039B2, “Treatment and prevention of pathological conditions using iduna related techniques and compositions” (VALTED, LLC, priority 2010, dated 2017)

What was measured:
cortical neurons [1] = experiment: MNNG-induced cell death in cortical neurons; assay type: cell-based, mouse; details: MNNG 50 μM for 15 min
Description: Primary Neuronal Culture Preparation: Primary cortical cell cultures were prepared from gestational day 15 mouse embryos as previously described. Experiments were performed at DIV (day in vitro) 14. Under these conditions, neurons represent 90% of the cells in the culture. Mature neurons were washed with control salt solution (CSS) containing 120 mM NaCl, 5.4 mM KCl, 1.8 mM CaCl2, 25 mM Tris-HCl pH 7.4 and 15 mM D-glucose. To induce NMDA-mediated […], 50 μM NMDA and 10 μM glycine in CSS solution was applied to the cells for 5 min, then the cells were washed and re-supplemented with minimum essential medium containing 10% horse serum. […]
Cell Death Assessment: Following exposure of neuronal cultures to the various treatments neuronal survival was quantified and presented as percent of cell death. Percent cell death was determined as the ratio of live-to-dead cells compared with the percent cell death in control wells to account for cell death attributable to mechanical stimulation of the cultures. Quantification of neuronal survival was determined by staining treated cultures with 5 μM Hoechst 33342 and 2 μM propidium iodide (PI) (Invitrogen, Carlsbad, Calif.). […] The numbers of total and dead (PI positive) cells were counted by automated computer assisted software (Axiovision 4.6, Zeiss, Germany). […]

primary neurons = experiment: H2O2-induced cell death in primary neurons; assay type: cell-based, mouse; details: 100 μM H2O2
Description: FIGS. 44 and 45—Iduna protects against peroxide-induced cell death in primary neurons. Primary neuronal cultures were transduced with lentiviruses expressing GFP, GFP-Iduna or GFP-Iduna-YRAA. 4 days following lentiviral transduction, cultures were treated with H2O2 (100 μM or 500 μM) and cell death assessed 24 h later using PI and Hoechst staining.
Cell Death Assessment: Following exposure of neuronal cultures to the various treatments neuronal survival was quantified and presented as percent of cell death. Percent cell death was determined as the ratio of live-to-dead cells compared with the percent cell death in control wells to account for cell death attributable to mechanical stimulation of the cultures. Quantification of neuronal survival was determined by staining treated cultures with 5 μM Hoechst 33342 and 2 μM propidium iodide (PI) (Invitrogen, Carlsbad, Calif.). Culture plates were placed on a mechanized stage of a Zeiss microscope and photomicrographs were collected by a blinded observer. The numbers of total and dead (PI positive) cells were counted by automated computer assisted software (Axiovision 4.6, Zeiss, Germany). The raw counts are presented in an Excel file for generation of percent cell death and statistical analysis. Glial nuclei fluoresce at a lower intensity than neuronal nuclei and were gated out by the software program. […]

cytochrome c = experiment: Cytochrome c release after NMDA excitotoxicity; assay type: cell-based, mouse; details: NMDA 500 μM for 5 min, 4 hrs
Description: FIG. 53—Immunoblot showing release of CYT C. Mouse cortical neurons over-expressing GFP, GFP-Iduna or GFP-Iduna-YRAA were subjected to NMDA-excitotoxicity (500 μM for 5 min) on DIV 14. Following subcellular fractionation into mitochondrial and cytosolic (post-mitochondrial) fractions, CYT C release was monitored 4 hrs following NMDA stimulation. COX IV was used as a marker for mitochondria and GAPDH was used a marker for cytosol. Data were repeated three times with similar results.
FIG. 54—Quantification of cytochrome c release from mitochondria following NMDA-toxicity. […] Values of optical density were quantified using Image J software and the data were normalized to the values of GAPDH in the cytosol.

cortical neurons [2] = experiment: Calcium imaging and mitochondrial Ca2+ uptake; assay type: cell-based, mouse
Description: Calcium Imaging: Neuronal cells were plated on 17 mm glass cover slips, pre-coated with poly-L-ornithine (0.1 mg/ml). On DIV 14, the cultures were loaded with calcium sensitive dye Fluo-5f (2.5 μM, dissolved in pleuronic acid/DMSO solution) for 45 min at 37° C. and thereafter placed on a thermostatically confocal microscopic stage (Carl Zeiss). HEPES balanced salt solution (HBSS: NaCl 137 mM, KCl 5 mM, HEPES 20 mM, glucose 10 mM, CaCl2 1.4 mM, NaHCO3 3 mM, Na2HPO4 0.6 mM, KH2PO4 0.4 mM, pH 7.4) was superfused to the cultures for 100 s to obtain a steady base-line. NMDA (500 μM for 5 min) was used to induce intracellular calcium influx. Florescence values were monitored at every 10 s and calculated using LSM 510 Meta software and represent the changes in cellular calcium.
Measurements of Mitochondrial Ca^2+-uptake Capacity: Extramitochondrial free Ca^2+ was monitored in the presence of isolated mitochondria or digitonin-permeabilized cells, using an indicator of extramitochondrial free Ca^2+ (Calcium green-5N, Invitrogen). […] Fluorescence was continuously monitored at an excitation/emission at 488/532 nm respectively. […] Ca^2+ uptake was monitored by addition of 50 μM CaCl2 to the assay medium using a Hamilton syringe.

MCF7 cells = experiment: Cell cycle analysis after γ-irradiation; assay type: cell-based, human; details: γ-irradiation 2 Gy
Description: Cell cycle analysis. Studies were performed to evaluate the cell cycle response of each stable cell lines. Cells were plated onto 150 mm culture dishes and cultured for 24 h at 37° C. with fresh growth medium. Following replacement of growth medium, cells were irradiated at 2 Gy with a Gammacell irradiator. After 12 h, cells were washed once with PBS and incubated with PBS containing 0.2% EDTA for 5 min at 37° C., thereafter scraped with fresh growth medium and collected at 500×g at 4° C. Collected cells were washed once with ice cold PBS and then fixed with 70% ethanol. Cells were washed once with PBS containing 1% FBS and resuspended into propidium iodide (PI) staining buffer (PBS, pH 7.4, 50 μg/ml PI, 1% FBS, 100 μg/ml RNase) for 30 min at 37° C. Cells were monitored for DNA content by a flow cytometry (BD Biosciences) and then data were analyzed with FlowJo using Dean-Jett-Fox model for the quantification of each cell cycle phase.

B1: Iduna: novel NMDA-induced cell survival protein, PAR-dependent E3 ligase; 359 amino acids (protein)
chain: MEMAGCGEIDHSINMLPTNKKANESCSNTAPSLTVPECAICLQTCVHPVSLPCKHVFCYLCVKGASWLGKRCALCRQEIPEDFLDKPTLLSPEELKAASRGNGEYAWYYEGRNGWWQYDERTSRELEDAFSKGKKNTEMLIAGFLYVADLENMVQYRRNEHGRRRKIKRDIIDIPKKGVAGLRLDCDTNTVNLARESSADGADSGSAQTGASVQLAVPSSTRPLTSVDGQLTSPVTPSPDAGISLEDSFAHLQLSGDSIAERSHRGEGEEDHESPSSGRVPDTSVEETESDASSDSEDAPVVVAQHSLTQQRPLVPNGNQTVADQSDRSGTDRSVAGGGTMSVNVRSRRPDGQCTVIEV
protection against MNNG-induced cell death (cortical neurons [1]): protects neuronal cultures against MNNG-induced cell death
protection against H2O2 toxicity (primary neurons): protects only against 100 μM H2O2
cytochrome c translocation from mitochondria to the cytoplasm (cytochrome c): reduction of cytochrome c translocation from mitochondria to the cytoplasm
mitochondrial calcium uptake (cortical neurons [2]; Calcium green-5N): does not interfere with mitochondrial calcium uptake
NMDA-induced calcium influx (cortical neurons [2]; fluo-5F, NMDA 500 μM 5 min): does not interfere with NMDA-induced intercellular calcium influx
cell cycle arrest and cell survival (MCF7 cells): rescues cells from G1 arrest in the cell cycle and promotes cell survival
